Ten molecules from patent US20130324465A1 (Sanofi, published 2013) can be followed below.

“And” between values parts separate entries of the source, which are not always exact repeats. Identical values can stand only once. Some results are limits rather than exact numbers.

The target in assay [1] is VEGF165 (UniProt P15692). The assay is described as follows: competitive VEGF ELISA; panel B. Background: ELISA stands for enzyme-linked immunosorbent assay.
Assay [2] concerns the target VEGF165 (UniProt P15692). In words: VEGF binding assay.
Assay [3] deals with VEGF165 (UniProt P15692). The assay is described as follows: competitive VEGF ELISA; panel A.
In assay [4] the target is VEGF165 (UniProt P15692). The assay is described as follows: VEGF binding assay; after 56 days incubation at 45 C.
The target in assay [5] is T1, VEGF165 (UniProt P15692 27-191).
T1 chain: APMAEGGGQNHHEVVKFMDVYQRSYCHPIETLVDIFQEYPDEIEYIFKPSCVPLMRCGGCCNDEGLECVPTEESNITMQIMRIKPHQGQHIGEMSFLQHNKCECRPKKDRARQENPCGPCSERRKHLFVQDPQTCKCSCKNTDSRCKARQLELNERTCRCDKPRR
In words: competitive VEGF ELISA; panel A.

The target of assay [6] is T1, VEGF165. In words: Biacore; 500RU VEGF. On the technique in general: SPR reads the build-up and loss of mass on a sensor chip optically.
The target of assay [7] is T1, VEGF165. The assay is described as follows: Biacore; 4000RU VEGF.
In assay [8] the target is T1, VEGF165. In words: Biacore; 100RU VEGF.
Assay [9] has as its target T1, VEGF165. The assay is described as follows: competitive VEGF ELISA; panel B.
Assay [10] deals with T2, VEGF165 (UniProt P15692-4 27-191).
T2 construct: also called recombinant VEGF (R&D Systems); immobilized VEGF
In words: competitive VEGF ELISA (VEGF binding assay). The method, then: (§1) Dimers wherein two D2 domains of sFLT are coupled via PEG linkers were prepared by reaction of the partially-reduced monomer with homobifunctional PEGs. Products were isolated by SEC (FIG. 5) and analyzed for VEGF binding affinity using competitive ELISA (FIG. 9). VEGF165 binding of three SEC purified D2 domain constructs including dimers prepared with 0.6, 2 and 5 kDa linkers and as well as the 10 and 20 kDa 4-arm PEG conjugates as described in Example 1 was determined. The assay was performed by binding to 10 pM recombinant VEGF (R&D Systems) in phosphate-buffered saline. The sample concentrations ranged from 0.0763 to 156 pM. Following binding, the free VEGF concentration was determined by a VEGF-specific ELISA (R&D Systems). […] D2 monomer purified directly from medium (“D2 HPC4 eluate Pk C”) had no detectable binding to VEGF165.

In assay [11] the target is T1, VEGF165. In words: competitive VEGF ELISA.
In assay [12] the target is T2, VEGF165. The assay is described as follows: competitive VEGF ELISA. The method, then:
Dimer was prepared using 100 uM CuCl₂ and the products assayed for VEGF binding activity by competitive VEGF ELISA. […] This value was similar to that obtained for dimers obtained without copper oxidation (FIG. 5). This molecule lacks the hinge region and Fc domain of sFLT01 and represents a minimal high affinity VEGF binding entity. Its low MW may provide advantages in localized delivery, including higher diffusion through tissue, more rapid systemic clearance thus reducing potential side effects of VEGF antagonism, and greater stability upon formulation into slow-release depots.
Dimers wherein two D2 domains of sFLT are coupled via PEG linkers were prepared by reaction of the partially-reduced monomer with homobifunctional PEGs. Products were isolated by SEC (FIG. 5) and analyzed for VEGF binding affinity using competitive ELISA (FIG. 9). VEGF165 binding of three SEC purified D2 domain constructs including dimers prepared with 0.6, 2 and 5 kDa linkers and as well as the 10 and 20 kDa 4-arm PEG conjugates as described in Example 1 was determined. The assay was performed by binding to 10 pM recombinant VEGF (R&D Systems) in phosphate-buffered saline. The sample concentrations ranged from 0.0763 to 156 pM. Following binding, the free VEGF concentration was determined by a VEGF-specific ELISA (R&D Systems). […]

For assay [13], the target named is T2, VEGF165. The assay is described as follows: Biacore.
Assay [14] concerns the target T2, VEGF165. In words: competitive VEGF ELISA: binding to 10 pM recombinant VEGF, free VEGF measured by ELISA. The method, then:
as §1

Assay [15] deals with T1, VEGF165. The assay is described as follows: VEGF binding assay.

In general, EC50 refers to the concentration at which the effect is half-maximal. A higher EC50 goes with weaker potency. On to “D2-Cys protein (D2 domain of FLT-1 with HPC4 tag and C-terminal cysteine), monomer (from UniProt P17948 133-226)”, for which the concentration for a half-maximal effect (EC50) with VEGF165 [1] was 0.172 nM and 0.254 nM.
Take “disulfide-linked D2 dimer (D2 domain with HPC4 tag and C-terminal cysteine) (from UniProt P17948 133-226)”: the concentration for a half-maximal effect (EC50) with VEGF165 [2] was 0.0048 nM; with VEGF165 [1] it was 0.0119 nM; with VEGF165 [3], 0.00708 nM; with VEGF165 [4], 0.0109 nM.

B1: Four-arm D2 tetramer linked with 4-arm PEG of 20 kDa (receptor)
chain: RPFVEMYSEIPEIIHMTEGRELVIPCRVTSPNITVTLKKFPLDTLIPDGKRIIWDSRKGFIISNATYKEIGLLTCEATVNGHLYKTNYLTHRQT
modifications: free cysteine coupled to a 4-arm 20 kDa maleimide PEG
As usually defined, the Kd is the constant that tells how readily two partners part at equilibrium. A higher Kd goes with lower affinity. Molecule B1 showed an EC50 in the assay with VEGF165 [5] of 0.00478 nM. In addition, the results for the dissociation constant (Kd) in the assay with VEGF165 [6], in the assay with VEGF165 [7] and in the assay with VEGF165 [8] were 0.1 nM, 0.17 nM and 1.5 nM, respectively.

B2: PEG-linked D2 dimer, 0.6 kDa linker (receptor)
chain: RPFVEMYSEIPEIIHMTEGRELVIPCRVTSPNITVTLKKFPLDTLIPDGKRIIWDSRKGFIISNATYKEIGLLTCEATVNGHLYKTNYLTHRQT
modifications: free cysteine of partially-reduced monomer coupled to a homobifunctional PEG linker of 0.6 kDa (BM(PEG)3)
In the assay with VEGF165 [9], B2 registered an EC50 of 0.00471 nM.

B3: disulfide-linked D2 dimer (D2 domain with HPC4 tag and C-terminal cysteine) (receptor)
chain: RPFVEMYSEIPEIIHMTEGRELVIPCRVTSPNITVTLKKFPLDTLIPDGKRIIWDSRKGFIISNATYKEIGLLTCEATVNGHLYKTNYLTHRQT
modifications: disulfide-linked dimer, presumably via the C-terminal cysteine
notes: Two preparations are kept under one id; One formed spontaneously and was SEC-purified from PEGylation reactions or conditioned medium, without copper oxidation ('D2 HPC4 eluate Pk B', 'D2 Pk B'); also called Cu-oxidized dimer; D2 HPC4 eluate Pk B
As for B3, the values for the dissociation constant Kd in the assay with VEGF165 [6], in the assay with VEGF165 [7] and in the assay with VEGF165 [8] were 0.53 nM, 11.4 nM and 1.69 nM, respectively. Further, the results for the 50% effective concentration (EC50) with VEGF165 [10] and with VEGF165 [11] were 0.008 to 0.01 nM and 8.3 nM, respectively. Besides, the “fold higher EC50 than sFLT01” value in the assay with VEGF165 [10] amounted to 2 fold; with VEGF165 [12], 2.2 fold.

B4: Four-arm D2 tetramer linked with 4-arm PEG of 10 kDa (receptor)
chain: RPFVEMYSEIPEIIHMTEGRELVIPCRVTSPNITVTLKKFPLDTLIPDGKRIIWDSRKGFIISNATYKEIGLLTCEATVNGHLYKTNYLTHRQT
modifications: free cysteine coupled to a 4-arm 10 kDa PEG
In turn, B4 showed an EC50 in the assay with VEGF165 [5] of 0.00374 nM. Moreover, the dissociation constant Kd with VEGF165 [6] is 0.14 nM; in the assay with VEGF165 [7], 0.35 nM; with VEGF165 [8], 0.84 nM.

B5: D2-Cys protein (D2 domain of FLT-1 with HPC4 tag and C-terminal cysteine), monomer (receptor)
chain: RPFVEMYSEIPEIIHMTEGRELVIPCRVTSPNITVTLKKFPLDTLIPDGKRIIWDSRKGFIISNATYKEIGLLTCEATVNGHLYKTNYLTHRQT
notes: Expressed in HEK293-EBNA cells and purified on an HPC4 antibody column; glycosylated; also called D2 monomer; TCEP-reduced D2 monomer
In the case of B5, the Kd in the assay with VEGF165 [6] was 11.5 nM; with VEGF165 [7] it was 28.9 nM; in the assay with VEGF165 [13] it was approximately 10 nM; with VEGF165 [8] it was 9.61 nM. The same molecule displayed a 50% effective concentration (EC50) with VEGF165 [11] of 131 nM. The “fold higher EC50 than sFLT01” value with VEGF165 [12] is approximately 35 fold. Also, in the assay with VEGF165 [14], the “percent of the binding affinity of sFLT01” value is less than 3%.

B6: PEG-linked D2 dimer, 2 kDa linker (receptor)
chain: RPFVEMYSEIPEIIHMTEGRELVIPCRVTSPNITVTLKKFPLDTLIPDGKRIIWDSRKGFIISNATYKEIGLLTCEATVNGHLYKTNYLTHRQT
modifications: free cysteine of partially-reduced monomer coupled to a homobifunctional PEG linker of 2 kDa
In turn, B6 came in with an EC50 with VEGF165 [5] of 0.00579 nM.

B7: PEG-linked D2 dimer, 5 kDa linker (receptor)
chain: RPFVEMYSEIPEIIHMTEGRELVIPCRVTSPNITVTLKKFPLDTLIPDGKRIIWDSRKGFIISNATYKEIGLLTCEATVNGHLYKTNYLTHRQT
modifications: free cysteine of partially-reduced monomer coupled to a homobifunctional PEG linker of 5 kDa
Turning to B7, the midpoint of the response in the assay with VEGF165 [9], the EC50, lay at 0.00675 nM.

B8: sFLT01 (D2-9Gly-Fc) (Fc fusion)
chain: RPFVEMYSEIPEIIHMTEGRELVIPCRVTSPNITVTLKKFPLDTLIPDGKRIIWDSRKGFIISNATYKEIGLLTCEATVNGHLYKTNYLTHRQTGGGGGGGGG
In the case of B8, the concentration giving a half-maximal response (EC50) with VEGF165 [5] amounted to 0.0047 nM; with VEGF165 [9], 0.00472 nM; with VEGF165 [11] it was 3.7 nM; with VEGF165 [15], 0.0054 nM. Also, the Kd in the assay with VEGF165 [6] was determined as 0.61 nM; with VEGF165 [7] it was 0.8 nM; with VEGF165 [8] it was 2.5 nM.
